According to publication PMC2924388, “Conformational Adaptation of Asian Macaque TRIMCyp Directs Lineage Specific Antiviral Activity” (PLoS Pathogens, 2010):

Legend:
[1] = target: T1, CypA domain of Mafa TRIMCyp2 with Cyp K143E (K446E in TRIMCyp) (Macaca fascicularis); test: ITC; MicroCal ITC200; cyclophilin (typical concentration 1.4 mM) in the syringe, capsid (typical concentration 120 µM) in the cell; 50 mM KPO4 pH 7.4, 100 mM NaCl, 1 mM DTT; 15°C; one-state model; conditions: both partners purified
T1 construct: As m1 but with glutamate at Cyp 143 (the residue of CypA and of Mamu TRIMCyp); also called Mafa TCyp2 K143E; K143E mutant; source: E. coli BL21 (DE3), purified (Ni-NTA, gel filtration), as per the wild-type protein

[2] = target: T2, CypA domain of Macaca fascicularis TRIMCyp2 (Mafa TRIMCyp2) (Macaca fascicularis); test: as above; conditions: both partners purified
T2 construct: Cyp 54, 66, 69 and 143 are TRIMCyp 357, 369, 372 and 446. numbers count on: CypA; Natural allele; also called Mafa TCyp2; Mafa Cyp; source: E. coli BL21 (DE3), purified (Ni-NTA, gel filtration)

B1: FIV capsid N-terminal domain (domain or fragment)
chain: PIQTVNGVPQYVALDPKMVSIFMEKAREGLGGEEVQLWFTAFSANLTPTDMATLIMAAPGCAADKEILDESLKQLTAEYDRTHPPDAPRPLPYFTAAEIMGIGLTQEQQAEARFAPARMQCRAWYLEALGKLAAIKAKS
modifications: Unmodified wild-type domain. Strain and limits are not printed: the Petaluma isolate is assumed. The start is the capsid p24 N-terminus (136); the end is set by homology to HIV-1 CA-N 1-146 (pdb 2X83)
- Kd [1]: 15 µM
- Kd [2]: 27 µM
